Reference: the DeepSol protein solubility set

Test: soluble on expression in E. coli; label from the status in PepcDB or PDB records
For “MAERTHFMELALVEARSAGERDEVPIGAVLVLDGRVIARSGNRTRELNDVTAHAEIAVIRMACEALGQERLPGADLYVTLEPCTMCAAAISFARIRRLYYGAQDPKGGAVESGVRFFSQPTCHHAPDVYSGLAESESAEILRQF”, the “soluble on expression in E. coli” value was “soluble”. In the case of “MQQQVAPVPVIGVTADVLQMQANMKSLKSQLTNAPYGDSPLLKYNANPEIDGKSSPASTQRQLRFLAAKKGALSSSSDAQDSSFIIPPISKVMSDLSPAVTRSADVTKDLNYTSKEAPPSLARGLRNSTFNPNMSLTNRSVHESSALDKTIDSALDASMNGTSNRLGVRGSVRRSNLKQLDMSLLADSSRVGRESRVADPDALPRISESERRQDVVTSTPAVDPVQAVIQRHNDRNRDPPSLNLDTTCDEHTGLEPVSAATSSAASVVSTPSEETVNVNSAAGVKLTKPDYFSLPTINEMKNMIKNGRVVLEDGLTVGRSSYGSVYWPGRVELKDVALDEIVVFRHREVTVYPNEEEKAPEGQELNRPAEVTLERVWYTDKKTKKEVRDVVKLSEIGWREHLERQTIRMGAAFKDFRAETGSWVFRVDHFSKYGLADDDEPMDGSPPQQALQASSPLQVIDMNTSARDVNNQVQRKKVHKATDAHHQEIILERVPAPAALGDVVPIIRRVNRKGLGGGTLDDSREESCIGNMTTEFNESGHDSIIEEGQQPEKKPKLELLADLEYESSRFIRNLQELKVMPKANDPAHRFHGGGHSAKMIGYGKSKLIDIGIVKGRSSHVGWSETGCLVWSAQPRHNQVLFGTIDRTSDVNENTLISMLDVNVHVSETSRKGPSSQSNSVKSSLTSNFVTYSDSYSSMFAKYIDVAQAGGYDGHVSVWKLISALFPYERREGWSFERGEEIGEWLRTEAVKSVPDDRSADTSSNGVWNQLCLGDIDKAFQIAIDNNQPQLATMLQTSAVCPEATVHCFKAQLDNWKKCETLHLIPKETLKCYVLMSGLSHYEWDQDGKNHSINCLDGLNWIQALGLHVWYLRAWTGLEESYDAYQKDVNAGRAASNRGDLPGELIKLACESQHSVEVVLDCAAGENPNDYFLQWHVWSLLYSVGYRTMSKTSETRLHRNYSSQLEASSLSKYALFVLQHIDDDEERSTAVRSLLDRIARFTDNDMFDSISEQFDIPSEWIADAQFSIAKSVDDSTQLFELAVAAKNYLEICRLFVDDIAPTAVVAGDHDALKAACAMVRPFENQIPEWGATGMVYTDYCRLINLIENDAEEELLQDVLESLETRLHAPTISKNSLQKLSLQTIGRVLFEYRADKNTLPEWTKLLGHRQMFKIFRDRSSWGIERFTIEFD”, the “soluble on expression in E. coli” value is reported as “not soluble”. For “MAHHHHHHMPCNVSCSTSPNSVTGEPRFIMDFSMNKVAKYFRLLGYDTLCSRDVPQANLIPTACAEGRILVTCSRPLARSVQLHNQRVRTMRLGIAKAMTGAAHHVIAYDSDGESIYSEDSEEVDVELRCLFTQQWCSGEFKRAMIELIQQAGVTYDLNRVFRRCVTCNELLVTMEKEEVRGRVVAKIYEIYDEFTECPTCRKVFWGFDGVFAINYKSFRSLNLLRSLCICAGAPVEEERTRLNRLRCFRSFPRIAKVLIFSYLEDVDLANMTVVFPALRDLAEEVQASRQTGEPVRKMQLRKH”, the “soluble on expression in E. coli” value was “not soluble”. For “MGSDKIHHHHHHMGRVLIIGAGGVGTVVAHKVAQNADVFTDIMIASRTKEKCDNIVKAIGNPNIKTAKVDADNVDELVALFNDFKPEMVINVALPYQDLTIMEACLKAGVNYLDTANYEPKDEAHFEYSWQWAYHDRFKEAGLTAILGCGFDPGVSGIYTAYAAKHYFDEIQYLDIVDCNAGNHHKAFATNFNPEINIREITQNGRYYENGQWVTTGPLEIHKDLTYPNIGPRDSYLLYHEELESLVKHFPTIKRARFWMTFGQEYLTHLRVIQNIGMARIDEVDYNGTKIVPLQFLKAVLPNPQDLGENYEGETSIGCRIRGIKDGKERTYYVYNNCSHQEAYKETGMQGVSYTTGVPAMIGAMMFFKGEWQRPGVNNVEEFNPDPFMEQLNKQGLPWHEVFDKDLEL”, the “soluble on expression in E. coli” value was “not soluble”. With “MGSDKIHHHHHHMDPAPSLGCSLKDVKWSSVAVPLDLLVSTYRLPQIARLDNGECVEGLRENDYLLIHSCRQWTTITAHSLEEGHYVIGPKIEIPVHYAGQFKLLEQDRDIKEPVQYFNSVEEVAKAFPERVYVMEDITFNVKVASGECNEDTEVYNITLCTGDELTLMGQAEILYAKTFKEKSRLNTIFKKIGKLNSISKLGKGKMPCLICMNHRTNESISLPFQCKGRFSTRSPLELQMQEGEHTIRNIVEKTRLPVNVTVPSPPPRNPYDLHFIREGHRYKFVNIQTKTVVVCCVLRNNKILPMHFPLHLTVPKFSLPEHLVKGESWPETLVHHWLGICQEQFDIDEYSRAVRDVKTDWNEECK” the “soluble on expression in E. coli” value was “not soluble”. In the case of “SLRAEKSDDPLYPLTIIHLNDFHARFEETNTVSTRCKPDEGERCIGGYGRVVSRVKSLQQEYADRNPIYLNAGDSFQGTIWYTLLRWNVTAYFLNLLPADAMTLGNHEFDHGVEGLVPFLGAIDSPMLVANIDDREEPTLQGKYQRNVVLERGGRKIGIIGVIHHATDTLSMTDRVRFLDEVQCINQEATALKQLGVDIIVVLSHCGFTIDQQIARECPDVDVVVGGHSHTLLHTGTVADWPDVPAGSFPFVVEQAAGRRVLIVQAGSFTKYLGHLVVYFDERGEAVRWEGNTEYLDESFPKDEQIERELVPWRTQVDALAVRPVGVSRVFLSKPACRTGECNFGSFVADAFVDYYVGRGEAEHEWTYAAIGITNDGGLRTSLAPGTLTYEDLVTAIPYENTVDTFELRGQYLLDALEYSASRYDTADVLQFAGLRVVFNLTRPALQRVQRVDVRCRVCRIPRYEPLDVNATYRIAIAAWIGSGGNGYTMFGQHRTNVRVGPLDIDVFERYVAKMSPIMQGTDGRMVFVR”, the “soluble on expression in E. coli” value is reported as “not soluble”. In the case of “MRKLKITELNRISAEEFKQAEKLPLVVVLDDIRSLHNIGSVFRTSDAFRIECIYLCGITATPPHPEMHKTALGAEFTVDWKYVNNAVDAVDNLRKEGYIVYSIEQAEGSIMLDRLELDKTKKYAIVMGNEVKGVQQEVIDHSDGCIEIPQYGTKHSLNVSVTTGIVIWDLFKKLR”, the “soluble on expression in E. coli” value is reported as “not soluble”. With “MRAKKRKFLQKEELSKLLQSLDMSQIGFGWFVMLAAKTGMRYAEALAITPADFDWTAQTISINKTWDYKYNKGFAKTKTLSSVRTIKIDWQIVGQFKPLIKDFPEDEPIFVEKFGDGTYKRQFNSTINNFLAVKCNETGITQISFHALRHTHASVLLAEGVSIHTISARLGHADVGVTQETYAHVLDELQKKDDQKMLSVLMQIALEHHHHHH” the “soluble on expression in E. coli” value was “not soluble”. In the case of “MSDEEEEDVNFKPGTEISSTKANYTVVRLLGEGGFGAVYLVQDNKSKKQSAMKVERKIEKRKHSKLKMEIAILKLVGSGKHFTQIVDRGKKDKEGFFFLVMELVGKSLADLKADRPDKVFSFATGLGVSCQCLEAVEELHKTGFIHRDLKPQNYACGLDEKRHNIYILDFGIARKYLNTKNELKTPRETVGFKGTVRFAPIACHRNTEMGPKDDCESWFYLLLDLIVPSGLPWRKLSDKHEVLKEKEECRKDKRSSLFAGLRQTDYLSKVLDYIDGRAYQDRVDYQFIYKNLAEACKVCNLDIDSPYDWELQKPEKTSKEPTSSKMP”, the “soluble on expression in E. coli” value is reported as “not soluble”. In the case of “GSPEFPPTIQEIKQKIDSYNSREKHCLGMKLSEDGTYTGFIKVHLKLRRPVTVPAGIRPQSIYDAIKEVNPAATTDKRTSFYLPLDAIKQMHISSTTTVSEVIQGLLDKFMVVDNPQKFALFKRIHKDGQVLFQKLSIADYPLYLRLLAGPDTDVLSFVLKEN”, the “soluble on expression in E. coli” value is reported as “soluble”. For “MSTDVAAAQAQSKIDLTKKKNEEINKKSLEEDDEFEDFPIDTWANGETIKSNAVTQTNIWEENWDDVEVDDDFTNELKAELDRYKRENQ”, the “soluble on expression in E. coli” value was “soluble”. For “MGSDKIHHHHHHMCMTSPDQLTASESADTASAHKRVLVAAPRGYCAGVDRAVETVEKALEKYGAPVYVRKEIVHNRYVVDTLAERGAIFVDETTEAPEGAHLVFSAHGVSPAVHKEAEALSLKTLDATCPLVTKVHNEVKRFARDGYHILLVGHEGHEEVEGTAGEAPDVTHLVDGVESVDKLPEFLHDEKLIWLSQTTLSVDETMTIVKKLHERFAHLQDPPSDDICYATQNRQVAVKAIAAESDVVIVVGSQNSSNSKRLVEVALQAGAGASYLVDYAHQIDESWLDGATTVGVSSGASVPEILVRGVLEFLDARGFHDVKEITTAAEKITFALPRDLRPART”, the “soluble on expression in E. coli” value was “not soluble”. In the case of “MGSDKIHHHHHHMTDSTTLYPVFAEELLPGGGHRSFILKRGELLRLTDLNGNANVSLTLLNAHEKTERLNLPDSLKCQHTAKLSNGHCLYSDMGRVLAAIVTDTCGWSDSIGGVLNAQEVAEKYGQGRYQELRNGFFRNGVDNLLVELGKWGLGLSDLLMTLNLFSRVDVSETGTLHFAPNNSKAGDYIELYAPMDTLVVLTALQHPMDPNPDYVPQPLTLSWMKADASVAEHCRTSRPENERGFINTDRLFA”, the “soluble on expression in E. coli” value is reported as “not soluble”. In the case of “SKLSPIIMIPGSSATENRFDGLVRKLNQDRRGTKHSLLKVKVWNNGRITFEGKIRKNDNEPIIVIGFENNKDGYSNIKKQAKMMNQAFEALQNKYNFNNFKGLAHSNGGLIYTAFIENDLSDYDVKINSLMTIGTPYNFTETNIKNKSVMLADFIAAKENIPSTLHVYSVAGTITYDSDELVPDASVSAGKYIYQNQAKSYTEITVTGEDAQHSDLPTNDEVVDLIKQHIEGQGLRKKQKTKLEPQ”, the “soluble on expression in E. coli” value is reported as “not soluble”. In the case of “SNKGGGSGGGSGGGSGPTAAAAAAALQKQKALLQRVETDITSVVDNFTQIVNVSRVSDPPVKNSQETYMMEMRASRMATQVLLKDFLMSLWSVVNLLPHQWWQVQAADSLLKLVSELKQTAIFSGFASLNDHVEQRIEEFDQEAEKTNRLLARIADDASANLKELESHYYSSAQRLTLDI”, the “soluble on expression in E. coli” value is reported as “soluble”. With “MGSDKIHHHHHHMTKVAHLTSVHSRYDIRIFRKQCRTLSQYGYDVYLVVADGKGDEVKDGVRIVDVGVLSGRLNRILKTTRKIYEQALALGADVYHFHDPELIPVGLRLKKQGKQVIFDSHEDVPKQLLSKPYMRPFLRRVVAVLFSCYEKYACPKLDAVLTATPHIREKFKNINGNVLDINNFPMLGELDAMVPWASKKTEVCYVGGITSIRGVREVVKSLECLKSSARLNLVGKFSEPEIEKEVRALKGWNSVNEHGQLDREDVRRVLGDSVAGLVTFLPMPNHVDAQPNKMFEYMSSGIPVIASNFPLWREIVEGSNCGICVDPLSPAAIAEAIDYLVSNPCEAAALGRNGQRAVNERYNWDLEGRKLARFYSDLLSKRDSI” the “soluble on expression in E. coli” value was “not soluble”. With “MGSDKIHHHHHHMPIDTVGEQISLGKTSNEQANHIFLFLEVFKQEGGIQSYVKDIFRAYSGLSQGYQAEVLLLRDSPECSNPFTSNNLKFHYFQNPSPQIGRIKMAGVLLKFLLQRRPQMVFCGHIKLAVLVQTLCQPLGIPYTILTYGKEFWEPLKNQERRALAAAKEIWTISRYSRDRACAVNGIDPHKVKMLPCAIDGNKFTPGAKQPELIDKYGLTDAKVLMTVARLWSGDIYKGVDVTIRALPKIIQSFPEVKYLVIGRGDDQPRLAQLAQDLGVSDRVIFAGFVPTEQLMAHYRLADAYIMPSQEGFGIVYLEAMACGVPVLSGDDDGSADPLQDGKLGWRVPHRNPEAVAAACLEILQGDDQRCDGEWLREQAIALFGMDALQKQLLSLVHTQN” the “soluble on expression in E. coli” value was “not soluble”. With “TVAVSQIVEHPALDATRQGLLDGLKAKGYEEGKNLEFDYKTAQGNPAIAVQIARQYVGESPDVLVGIATPSAQALVSATRTIPVVFTAVTDPVGAKLVKSMKQPGKNVTGLSDLSPVAQHVELIQEILPQVKSIGVVFNPGEANAVTLVNLLKESAEAKGIKVVEATALKSADVQSATQAIAAKSDILYAPTDNTVASAIEGMIVAANQAKKPVFGGATSYVEKGAIAGLGFDYYQVGVQTADYVAAILDGQEPGKLDVKVATGSDLVINESAASKLGIQLPSSVVQRATSMQ” the “soluble on expression in E. coli” value was “not soluble”. For “GVEFMAGYYDTKNQALNPVSRTERPYPIVTVQNYVEKAIKEGRIQMNVEIEAFTTDIRMIVIGNVFEWCLRNGEADFEGNMVRSLGKYLDSTLD”, the “soluble on expression in E. coli” value was “not soluble”. With “MFSAKKLSPADKLKNISSMLEEIVEDTTVPRNIRAAADNAKNALHNEEQELIVRSATAIQYLDDISEDPNMPIHTRTQIWGIVSELETIK” the “soluble on expression in E. coli” value was “soluble”.
